Laboratory results as given in patent WO2012075111A1 (dated 2012).

Experiments:
[1] = biological target: human CD40 (human) (UniProt P25942); assay: Biacore
[2] = biological target: T1, soluble CD40 (Homo sapiens (Human), UniProt P25942 20-193); assay: ELISA-type assays
T1 construct: Soluble CD40 as used in ELISA-type assays; the real soluble form is shorter
T1 sequence (P25942 20-193): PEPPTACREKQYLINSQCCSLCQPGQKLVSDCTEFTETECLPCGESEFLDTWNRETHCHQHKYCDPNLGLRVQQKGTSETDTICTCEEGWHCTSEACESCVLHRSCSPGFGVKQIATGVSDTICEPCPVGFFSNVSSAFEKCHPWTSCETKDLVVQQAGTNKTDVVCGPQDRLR

B1: monoclonal antibody HCD122 (antibody, human IgG1, kappa, V domains shown)
VH: QVQLVESGGGVVQPGRSLRLSCAASGFTFSSYGMHWVRQAPGKGLEWVAVISYEESNRYHADSVKGRFTISRDNSKITLYLQMNSLRTEDTAVYYCARDGGIAAPGPDYWGQGTLVTVSS
VL: DIVMTQSPLSLTVTPGEPASISCRSSQSLLYSNGYNYLDWYLQKPGQSPQVLISLGSNRASGVPDRFSGSGSGTDFTLKISRVEAEDVGVYYCMQARQTPFTFGPGTKVDIRR
notes: Fully human IgG1 kappa anti-CD40 monoclonal antibody from the hybridoma deposited as ATCC PTA-5543; also called CHIR-12.12
Kd [1]: 0.5 nM | binding result [2]: binds
